In PMC12312386, “Multiple transactivation domains of EZH2 bind to the TAZ2 domain of p300 and stimulate the acetyltransferase function of p300” (Biochemical Journal, 2025):

Assays:
[1] = test system: GST-p300TAZ2; assay: Mass photometry (MP) of GST-p300TAZ2 with EZH2TAD constructs; assay type: binding, human; settings: 20 nM GST-p300TAZ2 alone
Experimental: [37]. […] After induction with isopropyl b-D-1-thiogalactopyranoside (IPTG), harvesting, and lysis in buffer [50 mM Tris pH 7.0, 1 M NaCl, 5 mM dithiothreitol (DTT), 1 mM phenylmethanesulfonylfluoride (PMSF) and DNase] by sonication, the proteins were purified on glutathione agarose beads (Pierce) and eluted with buffer containing reduced L-glutathione (Fisher). The GST tag was either cleaved with TEV protease overnight at 22°C or kept intact during subsequent purification steps. […] The EZH2TAD1 ([…]) construct was generated by deletion using Q5 Hot Start High-Fidelity kit (NEB) and confirmed by DNA sequencing. Both constructs were expressed in E. coli Rosetta-2 (DE3) pLysS cells grown in LB media and induced at an OD600 of 0.6-0.8 with 1 mM IPTG for 16 h at 16°C. Cells were harvested by centrifugation, suspended in buffer (50 mM Tris pH 7.5, 500 mM NaCl, 1% CHAPS, 2 mM DTT, 1 mM PMSF, Roche cOmplete Protease Inhibitor Cocktail, and DNase), and lysed by sonication. […] When necessary, EZH2TAD constructs were further purified using a Superdex 200 Increase 10/300 GL column (Cytiva) with monitoring at 205 and 280 nm. […] To overcome the minimum size limit, a GST-fusion construct was used for one of the components in each sample. […] Ten microliter of each sample was loaded into the sample wells of the silicon cassettes assembled onto MassGlass UC coverslips (Refeyn, Ltd.). […]

[2] = test system: FLAG-HA-tagged p300 catalytic core (aa 1035–1830 of p300); assay: Histone acetyltransferase (HAT) assay, Western blot, recombinant nucleosome substrate; assay type: biochemical; settings: 1 μg p300 core, 2.5, 5 or 10 μg GST-tagged TADs, 1 μg nucleosome, 15 min
Experimental: Histone acetyltransferase assay
For HAT assays, FLAG-HA-tagged p300 core (aa 1035–1830 of p300) in a pCDH vector was expressed in 293 T cells for two days. Cells were lysed in lysis buffer (50 mM Tris-HCl pH 7.5, 300 mM NaCl, 1.5 mM MgCl2, 1 mM EDTA, 1% Triton100, 10% glycerol, 1 mM PMSF, and protease inhibitors) and sonicated. Cell lysates were incubated with anti-Flag M2 beads (Sigma) at 4° for 4 h. The beads were then washed three times with buffer (50 mM Tris-HCl pH 7.5, 500 mM NaCl, 1.5 mM MgCl2, 0.2 mM EDTA, 0.1% NP40, 10% glycerol, and 1 mM PMSF), and the protein was eluted with elution buffer (50 mM Tris-HCl pH 7.5, 300 mM NaCl, 1 mM DTT, 10% glycerol, and 0.4 mg/ml Flag peptide).
GST-tagged EZH2TADs (aa 119–267), EZH1TADs (aa 120–280), F176A/F237A EZH1TADs (EZH1 2A), and F146A/F176A/F237A/Y257A EZH1TADs (EZH1 4A) constructs in the pGEX-6p-1 vector were transformed into RosettaTM2 (DE3) pLysS competent cells (Novagen). Protein production was induced by incubating with 0.4 mM IPTG at 16°C for 20 h in LB. Cell pellets were resuspended in lysis buffer (50 mM Tris-HCl pH 8.0, 300 mM NaCl, 1 mM PMSF, and 1 × cOmpleteTM EDTA-free Protease Inhibitor Cocktail) and lysed by sonication. Lysates were centrifuged at 17,000 g for 15 min, and supernatants were incubated with Glutathione Sepharose® 4B beads (Sigma) at 4°C for 2 h. Beads were washed with lysis buffer twice, and proteins were eluted with elution buffer (50 mM Tris-HCl pH 8.0, 150 mM NaCl, 10% glycerol, and 15 mg/ml GSH).
Purified FLAG-HA-tagged p300 catalytic core fragment (1 μg) was incubated with increasing amounts of GST-tagged EZH2TADs and GST-tagged EZH1TADs (2.5, 5, or 10 μg) and the nucleosome (1 μg) in HAT reaction buffer (50 mM Tris-HCl pH 8.0, 100 mM NaCl, 10% glycerol, 1 mM DTT, […], and 1× cOmplete EDTA-free Protease Inhibitor Cocktail) at 30°C for 15 min. Reactions were stopped by boiling at 95°C for 5 min in 2×SDS loading buffer, and samples were analyzed by SDS-PAGE and Western blot. […]

B1: GST-p300TAZ2: GST-tagged human p300 TAZ2 domain, aa 1722–1812 (protein)
chain: AWTQSPGDSRRLSIQRCIQSLVHACQCRNANCSLPSCQKMKRVVQHTKGCKRKTNGGCPICKQLIALCCYHAKHCQENKCPVPFCLNIKQK
modifications: left off: GST, end not stated, kept
How did the “oligomeric state in the apo-state” value [1] turn out when B1 was run?
The value was “exists in a dimeric form”.

And the “MP peak, apo GST-p300TAZ2” value ([1]; Figure 5a, room temperature, 50 mM Tris pH 7.5, 150 mM NaCl, 5 mM DTT)?
The value was ~ 80 kDa.

B2: EZH1 WT: GST-tagged EZH1TAD1-TAD2-TAD3 (aa 120–280) (protein)
chain: NFMVEDETVLCNIPYMGDEVKEEDETFIEELINNYDGKVHGEEEMIPGSVLISDAVFLELVDALNQYSDEEEEGHNDTSDGKQDDSKEDLPVTRKRKRHAIEGNKKSSKKQFPNDMIFSAIASMFPENGVPDDMKERYRELTEMSDPNALPPQCTPNIDGP
modifications: left off: GST, end not stated, kept
Which “H3K18 acetylation by p300 core” value ([2]; 100 mM acetyl-CoA, 50 mM Tris-HCl pH 8.0, 30°C, H3K18ac Western blot) does the source give for B2 here?
Its value is “dose-dependent increase in H3K18 and H3K27 acetylation”.

What about the “H3K27 acetylation by p300 core” value ([2]; 100 mM acetyl-CoA, 50 mM Tris-HCl pH 8.0, 30°C, H3K27ac Western blot) of the same molecule?
The value was “dose-dependent increase in H3K18 and H3K27 acetylation”.

B3: EZH1 2A: GST-tagged F176A/F237A mutant of EZH1TAD1-TAD2-TAD3 (aa 120–280) (protein)
chain: NFMVEDETVLCNIPYMGDEVKEEDETFIEELINNYDGKVHGEEEMIPGSVLISDAVALELVDALNQYSDEEEEGHNDTSDGKQDDSKEDLPVTRKRKRHAIEGNKKSSKKQFPNDMIASAIASMFPENGVPDDMKERYRELTEMSDPNALPPQCTPNIDGP
modifications: left off: GST, end not stated, kept
B3 was tested. Which “stimulation of p300 enzymatic activity” value ([2]; mutants compared with EZH1 WT, 30°C, H3K18ac and H3K27ac Western blot) did it give?
The value was “stimulation of the p300 enzymatic activity was decreased”.
